Reference: patent publication US20020102651A1 (Dana-Farber, published 2002)

Biological target: T1, human B7-4M (B7-4 membrane form), expressed on transfected COS or CHO cells (human, UniProt Q9NZQ7 19-290)
T1 construct: also called 292
Assay: FACS on B7-4M-transfected COS cells
Procedure: COS cells were transfected with either vector DNA (pCDNAI), or an expression plasmid containing the B7-4M cDNA. After 72 hours, the tansfected COS cells were detached by incubation in PBS containing 0.5 mM EDTA for 30 min. at 37° C.
The ability of COS cells expressing B7-4M to bind to various T cell ligands and antibodies was tested. […] The ability of COS cells expressing B7-4M to bind to IgG and murine ICOS-his fusion protein was also tested. No binding of human B7-4 to murine ICOS was detected (FIG. 9).

T1 sequence (Q9NZQ7 19-290): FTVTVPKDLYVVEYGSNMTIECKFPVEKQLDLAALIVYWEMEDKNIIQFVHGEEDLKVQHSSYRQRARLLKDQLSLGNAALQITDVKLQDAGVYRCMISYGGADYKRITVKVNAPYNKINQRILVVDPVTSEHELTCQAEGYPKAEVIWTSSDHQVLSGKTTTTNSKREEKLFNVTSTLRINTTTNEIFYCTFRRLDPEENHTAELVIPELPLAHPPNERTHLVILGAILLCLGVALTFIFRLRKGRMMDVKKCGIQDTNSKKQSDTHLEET

B1: murine ICOS-his fusion protein (receptor, mouse, UniProt Q9WVS0 21-144, looked up)
chain: EINGSADHRMFSFHNGGVQISCKYPETVQQLKMRLFREREVLCELTKTKGSGNAVSIKNPMLCLYHLSNNSVSFFLNNPDSSQGSYYFCSLSIFDPPPFQERNLSGGYLHIYESQLCCQLKLWL
notes: not shown: his tag
binding result: no binding
